Results on 2 molecules are retold here after paper PMC4384115, “Molecular Recognition of PTS-1 Cargo Proteins by Pex5p: Implications for Protein Mistargeting in Primary Hyperoxaluria” (Biomolecules, 2015).

Experiment [1] relates to CHO cells. In words: Confocal immunofluorescence colocalization of AGT with mitochondria (Mitotracker) in transfected CHO cells. The following applies: transiently transfected CHO cells; for Pearson Rr, AGT + Mitotracker: fixed 72 h after transfection, mean ± S.E. It counts as cell-based, Chinese hamster. The procedure: (§1) Chinese hamster ovary (CHO) cells (ATTC, Rockville, MD USA) were grown in alpha-minimal essential medium (α-MEM, Lonza, Köln, Germany) supplemented with glutamine, penicillin/streptomycin and 5% fetal bovine serum. Cell transfections were performed using AGT cDNA variants (AGT-LRM or AGT-LRM-SKL) subcloned in pCIneo plasmids (Promega) with Transfast reagent (Promega, Madison, WI, USA), following manufacturer’s guidelines. After 24 h, cells were passed to plates containing 13 mm glass coverslips for immunofluorescence studies. Mitochondria in half the coverslips were labeled by incubation with Mitotracker (CMXRos, Invitrogen, Carlsbad, CA, USA) at the end of the culture. Cells were fixed with 2% paraformaldehyde 72 h after transfection and immunofluorescence was performed as previously described. Images were acquired with a laser scanning confocal microscope (Olympus Inverted IX81, Tokyo, Japan) using a 60× objective with immersion oil.
(§2) For quantitative immune-colocalization, the system was optimized to detect two fluorescent signals in one specimen: one in the green channel detector for protein of interest AGT-LRM or AGT-LRM-SKL and the other in the red channel, for either mitochondria labeled with mitotracker or peroxisomes labeled with peroxisomal membrane protein 70 (PMP70) antibody. When the two were seen to overlap (colocalization), it was assumed to be due to fluorescently labeled molecules binding to very close or indeed identical spatial positions. Colocalization events (or the lack thereof) were analyzed quantitatively with FluoView software (Olympus, Tokyo, Japan) and ImageJ software (NIH, Bethesda, MD, USA) with the JACoP plugin, based on a global statistic approach that conducts an intensity correlation coefficient-based examination. The Fisher transformation was applied to data obtained from ImageJ as well when calculating the mean values of colocalization coefficients and constructing the respective 95% confidence intervals. Descriptive statistical analysis of colocalization parameters (Pearson’s coefficient, Manders’ overlap coefficient and split Manders’ coefficients) was performed.

Experiment [2] relates to CHO cells. The experiment is described as follows: Confocal immunofluorescence colocalization of AGT with peroxisomes (PMP70) in transfected CHO cells. It counts as cell-based, Chinese hamster. The following applies: for amount of protein localized in peroxisomes / Pearson Rr, AGT + PMP70: transiently transfected CHO cells; for Pearson Rr, AGT + PMP70: fixed 72 h after transfection. The procedure:
as §1, §2

B1: AGT-LRM: human AGT variant p.P11L/p.G170R/p.I340M, mistargeting PH1 variant (protein, UniProt P21549 1-392, looked up, variant P11L G170R I340M)
Alanine--glyoxylate …: MASHKLLVTPLKALLKPLSIPNQLLLGPGPSNLPPRIMAAGGLQMIGSMSKDMYQIMDEIKEGIQYVFQTRNPLTLVISGSGHCALEAALVNVLEPGDSFLVGANGIWGQRAVDIGERIGARVHPMTKDPGGHYTLQEVEEGLAQHKPVLLFLTHGESSTGVLQPLDGFRELCHRYKCLLLVDSVASLGGTPLYMDRQGIDILYSGSQKALNAPPGTSLISFSDKAKKKMYSRKTKPFSFYLDIKWLANFWGCDDQPRMYHHTIPVISLYSLRESLALIAEQGLENSWRQHREAAAYLHGRLQALGLQLFVKDPALRLPTVTTVAVPAGYDWRDIVSYVMDHFDIEIMGGLGPSTGKVLRIGLLGCNATRENVDRVTEALRAALQHCPKKKL
Take B1: the “colocalization with mitotracker in the mitochondria” value with CHO cells [1] came out at 92%. In addition, the “Pearson Rr, AGT + Mitotracker” value in the experiment on CHO cells [1] amounted to 0.90; with CHO cells [1] (SEM), 0.90 ± 0.12. Further, the “% Coloc (Manders' m), AGT + PMP70” value in the experiment on CHO cells [2] (CHO cells, mean ± S.E., given as fraction, split Manders' M1 in situation 2, Manders' overlap R in situation 4, SEM) amounted to 0.17 ± 0.15. Moreover, in the experiment with CHO cells [2], the “amount of protein localized in peroxisomes” value is reported as 17%. Moreover, the “Pearson Rr, AGT + PMP70” value with CHO cells [2] (mean ± S.E.) was 0.39; in the experiment on CHO cells [2] (mean ± S.E., SEM), 0.39 ± 0.15.

B2: AGT-LRM-SKL: AGT-LRM with PTS1 mutated to the consensus –SKL C-terminal tripeptide (protein, UniProt P21549 1-392, looked up, variant P11L G170R I340M K390S L392L)
Alanine--glyoxylate …: MASHKLLVTPLKALLKPLSIPNQLLLGPGPSNLPPRIMAAGGLQMIGSMSKDMYQIMDEIKEGIQYVFQTRNPLTLVISGSGHCALEAALVNVLEPGDSFLVGANGIWGQRAVDIGERIGARVHPMTKDPGGHYTLQEVEEGLAQHKPVLLFLTHGESSTGVLQPLDGFRELCHRYKCLLLVDSVASLGGTPLYMDRQGIDILYSGSQKALNAPPGTSLISFSDKAKKKMYSRKTKPFSFYLDIKWLANFWGCDDQPRMYHHTIPVISLYSLRESLALIAEQGLENSWRQHREAAAYLHGRLQALGLQLFVKDPALRLPTVTTVAVPAGYDWRDIVSYVMDHFDIEIMGGLGPSTGKVLRIGLLGCNATRENVDRVTEALRAALQHCPKSKL
Consider B2, for which, in the experiment with CHO cells [1], the “colocalization with mitotracker in the mitochondria” value turned out to be 40% and the “Pearson Rr, AGT + Mitotracker” value was 0.47. Besides, in the experiment on CHO cells [2], the “amount of protein localized in peroxisomes” value is given as 84%. The “Pearson Rr, AGT + PMP70” value with CHO cells [2] (mean ± S.E.) is listed as 0.79.
